Measurements from patent US20210138090A1, “uPAR targeting peptide for use in peroperative optical imaging of invasive cancer” (FLUOGUIDE A/S, priority 2014, published 2021).
Square brackets hold non-standard residues; d marks the D form. Peptide text beside a SMILES is read from it. * marks the point of attachment. IRDye800CW = CC1(C)C(/C=C/C2=C(Oc3ccc(S(=O)(=O)O)cc3)C(=C/C=C3/N(CCCCS(=O)(=O)O)c4ccc(S(=O)(=O)O)cc4C3(C)C)/CCC2)=[N+](CCCCCC(=O)*)c2ccc(S(=O)(=O)[O-])cc21; Cha = N[C@@H](CC1CCCCC1)C(=O)O; AEEA = NCCOCCOCC(=O)O

Assays:
[1] = molecular target: uPAR H47C-N259C (Homo sapiens, UniProt Q03405, H69C/N281C); test: SPR inhibition of uPAR binding to immobilized uPA, constrained uPAR variant (negative control)
Chain of uPAR H47C-N259C (Q03405 23-305 H69C/N281C limits assumed): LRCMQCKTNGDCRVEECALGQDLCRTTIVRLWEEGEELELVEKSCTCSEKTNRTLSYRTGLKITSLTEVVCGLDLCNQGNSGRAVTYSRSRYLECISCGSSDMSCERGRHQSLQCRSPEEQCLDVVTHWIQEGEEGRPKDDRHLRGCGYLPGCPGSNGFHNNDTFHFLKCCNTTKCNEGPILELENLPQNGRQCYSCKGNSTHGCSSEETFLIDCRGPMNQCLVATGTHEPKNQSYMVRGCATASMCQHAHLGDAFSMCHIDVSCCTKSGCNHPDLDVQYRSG
Protocol: (§1) Covalent immobilization of purified human prouPA^S356A—was accomplished by injecting 12.5 μg/ml protein dissolved in 10 mM sodium acetate (pH 5.0) over a CM5 chip that had been pre-activated with NHS/EDC (N-ethyl-N′-[3-[…])propyl]-carbodiimide), aiming at a surface density of >5000 resonance units (RU) corresponding to 100 fmols/mm^2. After coupling the sensorchip was deactivated with 1 M ethanolamine. Binding of purified human uPAR as analyte was measured from 4 nM to 0.25 nM at 20° C. using 10 mM HEPES, 150 mM NaCl, 3 mM EDTA (pH 7.4) containing 0.05% (v/v) surfactant P20 as running buffer at a flow rate of 50 μl/min. In between cycles the sensorchip was regenerated by two consecutive 10-μl injections of 0.1 M acetic acid/HCl (pH 2.5) in 0.5 M NaCl. The inhibition of 3-fold dilutions of the compounds in question was measured for 4 nM uPAR with identical running conditions. All experiments were performed on a BiacoreT200 instrument.
(§2) For each inhibition peptide inhibition profile of uPAR binding to immobilized uPA there has been run a preceding standard curve and all calculations are based on the that standard curve.
Surface plasmon resonance (SPR) was applied to determine the […]-value of IRDye800-AE344 on the uPAR⋅uPA interaction in solution using a Biacore 3000 instrument essentially as described. In brief; pro-uPA^S356A, which is the natural ligand for uPAR. […] The analysis was carried out by measuring vobs of a fixed uPAR concentration (2 nM) incubated with a 3-fold dilution series of IRDye800-AE344 (ranging from 0.076 nM to 1.5 μM) for 300 sec at 20° C. with a flow rate of 50 μL/min. A standard curve was measured in parallel (2-fold dilution of uPAR covering 0.06 nM to 2 nM) including one repeated concentration point at the end to validate the biological integrity of the sensor chip. […] The parent nonamer peptide antagonist AE105 (Asp-Cha-Phe-D-Ser-D-Arg-Tyr-Leu-Trp-Ser-OH) was analyzed in parallel as positive control and the closed uPAR^H47C-N259C was used as negative control as its uPA binding cavity cannot accommodate AE105.

[2] = molecular target: uPAR wt (Homo sapiens, UniProt Q03405); test: SPR inhibition of uPAR binding to immobilized uPA
Chain of uPAR wt (Q03405 23-305 limits assumed): as the sequence (Q03405 23-305 H69C/N281C limits assumed) above, with C47H, C259N counted along it
Protocol: as §1, §2
Surface plasmon resonance (SPR) was applied to determine the […]-value of IRDye800-AE344 on the uPAR⋅uPA interaction in solution using a Biacore 3000 instrument essentially as described. In brief; pro-uPA^S356A, which is the natural ligand for uPAR. […] The analysis was carried out by measuring vobs of a fixed uPAR concentration (2 nM) incubated with a 3-fold dilution series of IRDye800-AE344 (ranging from 0.076 nM to 1.5 μM) for 300 sec at 20° C. with a flow rate of 50 μL/min. A standard curve was measured in parallel (2-fold dilution of uPAR covering 0.06 nM to 2 nM) including one repeated concentration point at the end to validate the biological integrity of the sensor chip. Running buffer contained 10 mM HEPES, 150 mM NaCl, 3 mM EDTA and 0.05% (v/v) surfactant P20, pH 7.4. The sensor chip was regenerated with two injections of 0.1 M acetic acid, 0.5 M NaCl. The parent nonamer peptide antagonist AE105 (Asp-Cha-Phe-D-Ser-D-Arg-Tyr-Leu-Trp-Ser-OH) was analyzed in parallel as positive control and the closed uPAR^H47C-N259C was used as negative control as its uPA binding cavity cannot accommodate AE105.

[3] = vis/NIR spectral properties; assay type: physicochemical
Protocol: Fluorophore excitation and emission profiles were obtained with PTI QuantaMaster 400 (Horiba Ltd., Japan). Excitation profile was measured at λemission=850 nm and the emission profile were measured at λexcitation=740 nm with xenon arc lamps as excitation source. Absorption was measured on a Cary 300 UV-Vis (Agilent, Santa Clara, Calif., USA).

[4] = photostability under continuous laser exposure; assay type: physicochemical
Protocol: The photostability was evaluated by a factor 2 dilution series with four samples from 0.23-1.8 nM IRDye800-AE344 in 100 μL phosphate buffered saline (PBS) placed in a black 96-well plate. The well was placed in a black box with the Fluobeam mounted in the top at a distance of 23 cm from the well plate. Image acquisition was performed at 0 min, 10 min, 15 min, 20 min, 0.5 h, 1 h, 2 h, 3 h, 6 h, 10 h, 15 h, 24 h. Each dilution sample was normalized to time point 0 and the data from all four samples were pooled.

[5] = biodistribution by organ fluorescence imaging; assay type: in vivo, mice; conditions: 3 nmol, 1 h
Source text: […] Due to renal excretion, the fluorescence signal in the kidneys were out of scale compared to all the other organs. […] The skin was imaged partially (1.25 g) and the biodistribution was extrapolated with respect to the full weight of the skin (4.9 g).

**Q.** With `CC(C)C[C@H](NC(=O)[C@H](Cc1ccc(O)cc1)NC(=O)[C@@H](CCCNC(=N)N)NC(=O)[C@@H](CO)NC(=O)[C@H](Cc1ccccc1)NC(=O)[C@H](CC1CCCCC1)NC(=O)[C@H](CC(=O)O)NC(=O)COCCOCCNC(=O)COCCOCCNC(=O)[C@H](CCC(=O)O)NC(=O)[C@H](CCC(=O)O)NC(=O)CCCCC[N+]1=C(/C=C/C2=C(Oc3ccc(S(=O)(=O)O)cc3)C(=C/C=C3/N(CCCCS(=O)(=O)O)c4ccc(S(=O)(=O)O)cc4C3(C)C)/CCC2)C(C)(C)c2cc(S(=O)(=O)[O-])ccc21)C(=O)N[C@@H](Cc1c[nH]c2ccccc12)C(=O)N[C@@H](CO)C(=O)O` [IRDye800CW-AE344, IRDye800-Glu-Glu-O2Oc-O2Oc-Asp-Cha-Phe-D-ser-D-arg-Tyr-Leu-Trp-Ser-OH] (IRDye800CW-EE[AEEA][AEEA]D[Cha]F[dS][dR]YLWS-OH) as the compound, how does the IC50 [1] read?
**A.** The IC50 was 5.8 ± 0.02 µM.

**Q.** What about the IC50 [2] of the same compound?
**A.** The IC50 was 20 ± 1.1 nM.

**Q.** What about the Stokes shift [3] of the same compound?
**A.** Its Stokes shift is 10 nm.

**Q.** And the “absorption peak λabs,max” value [3]?
**A.** The value was 777 nm.

**Q.** What about the “excitation peak λexcitation,max” value [3] of the same compound?
**A.** The value was 784 nm.

**Q.** And the “peak emission λemission,max” value [3]?
**A.** Its value is 794 nm.

**Q.** What about the “preserved fluorescence intensity (photostability)” value ([4]; continuous laser exposure for 1 h) of the same compound?
**A.** Its value is 84%.

**Q.** What about the “preserved fluorescence intensity (photostability)” value ([4]; continuous laser exposure, after 2 h) of the same compound?
**A.** The value was 62%.

**Q.** And the MFI brain ([5]; 333 ms exposure)?
**A.** Its MFI brain is 19 a.u.

**Q.** And the MFI liver ([5]; 333 ms exposure)?
**A.** The MFI liver was 88 a.u.

**Q.** And the MFI lungs ([5]; 333 ms exposure)?
**A.** The MFI lungs was 101 a.u.

**Q.** And the MFI skin ([5]; 333 ms exposure)?
**A.** The MFI skin was 99 a.u.

**Q.** What about the MFI tumor ([5]; 333 ms exposure) of the same compound?
**A.** The MFI tumor was 65 a.u.

**Q.** And the normalized uptake brain ([5]; normalized to skin=100)?
**A.** The normalized uptake brain was 0.7.

**Q.** What about the normalized uptake colon ([5]; normalized to skin=100) of the same compound?
**A.** The normalized uptake colon was 4.0.

**Q.** And the normalized uptake heart ([5]; normalized to skin=100)?
**A.** The normalized uptake heart was 0.4.

**Q.** And the normalized uptake kidneys ([5]; normalized to skin=100)?
**A.** Its normalized uptake kidneys is 38.8.

**Q.** What about the normalized uptake liver ([5]; normalized to skin=100) of the same compound?
**A.** Its normalized uptake liver is 12.2.

**Q.** What about the normalized uptake lungs ([5]; normalized to skin=100) of the same compound?
**A.** Its normalized uptake lungs is 4.2.

**Q.** And the normalized uptake pancreas ([5]; normalized to skin=100)?
**A.** The normalized uptake pancreas was 3.4.

**Q.** What about the “normalized uptake small intestine” value ([5]; normalized to skin=100) of the same compound?
**A.** The value was 11.2.

**Q.** And the normalized uptake spleen ([5]; normalized to skin=100)?
**A.** Its normalized uptake spleen is 0.4.

**Q.** What about the normalized uptake tumor ([5]; normalized to skin=100) of the same compound?
**A.** The normalized uptake tumor was 0.1.

**Q.** And the normalized uptake ventricle ([5]; normalized to skin=100)?
**A.** Its normalized uptake ventricle is 0.9.

**Q.** And the normalized uptake skin ([5]; skin = reference)?
**A.** Its normalized uptake skin is 100.

**Q.** And the MFI kidneys ([5]; extrapolated from 40 ms exposure)?
**A.** The MFI kidneys was 1,236 a.u.
